Earlier results as cited in PMC12513479.

Assays:
IFNAR2 (Homo sapiens) = IFNAR2 (Homo sapiens) (UniProt P48551)
IFNAR1 (Homo sapiens) = IFNAR1 (Homo sapiens) (UniProt P17181)
Chain of UniProt P17181 (P17181 28-436): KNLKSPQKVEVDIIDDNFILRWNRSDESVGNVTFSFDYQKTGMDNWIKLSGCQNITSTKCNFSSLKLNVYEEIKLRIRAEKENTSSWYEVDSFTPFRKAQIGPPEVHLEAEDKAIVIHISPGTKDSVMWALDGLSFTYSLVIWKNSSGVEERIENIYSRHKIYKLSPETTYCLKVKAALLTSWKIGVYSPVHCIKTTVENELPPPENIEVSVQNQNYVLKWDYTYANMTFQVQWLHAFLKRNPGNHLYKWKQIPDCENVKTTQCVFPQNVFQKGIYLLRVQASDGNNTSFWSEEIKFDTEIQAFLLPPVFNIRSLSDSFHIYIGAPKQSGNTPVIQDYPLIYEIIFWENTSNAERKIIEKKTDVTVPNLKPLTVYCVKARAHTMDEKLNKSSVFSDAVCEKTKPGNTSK

Chain of UniProt P48551 (P48551 27-243): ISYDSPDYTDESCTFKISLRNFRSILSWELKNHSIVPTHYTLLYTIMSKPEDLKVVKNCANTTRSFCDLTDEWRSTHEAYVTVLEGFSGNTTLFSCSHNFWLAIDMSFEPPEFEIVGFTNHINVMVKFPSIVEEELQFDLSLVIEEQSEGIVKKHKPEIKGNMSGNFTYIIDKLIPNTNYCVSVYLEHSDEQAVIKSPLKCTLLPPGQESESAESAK

IFN-β (from UniProt P01574)
Kd (IFNAR2 (Homo sapiens)): 0.1 nM
Kd (IFNAR1 (Homo sapiens)): 100 nM
